According to US20240132577A1:

Biological target: SARS-CoV-2 RBD (reagent of the GenScript sVNT kit L00847) (SARS-CoV-2), P0DTC2
Conditions: remark: other sources report otherwise

B1: Nb21 (VHH)
chain: QVQLVESGGGLVQAGGSLRLSCAVSGLGAHRVGWFRRAPGKEREFVAAIGANGGNTNYLDSVKGRFTISRDNAKNTIYLQMNSLKPQDTAVYYCAARDIETAEYTYWGQGTQVTVSS
B1 was tested, and the Inhibition Rate (%) was 14%.
